For the test, the target named is MYC-LRRK2 (leucine rich repeat kinase 2), wild type (human, UniProt Q5S007 1-2527). The test can be described thus: co-IP.
Sequence of MYC-LRRK2 (leucine rich repeat kinase 2), wild type (Q5S007 whole entry): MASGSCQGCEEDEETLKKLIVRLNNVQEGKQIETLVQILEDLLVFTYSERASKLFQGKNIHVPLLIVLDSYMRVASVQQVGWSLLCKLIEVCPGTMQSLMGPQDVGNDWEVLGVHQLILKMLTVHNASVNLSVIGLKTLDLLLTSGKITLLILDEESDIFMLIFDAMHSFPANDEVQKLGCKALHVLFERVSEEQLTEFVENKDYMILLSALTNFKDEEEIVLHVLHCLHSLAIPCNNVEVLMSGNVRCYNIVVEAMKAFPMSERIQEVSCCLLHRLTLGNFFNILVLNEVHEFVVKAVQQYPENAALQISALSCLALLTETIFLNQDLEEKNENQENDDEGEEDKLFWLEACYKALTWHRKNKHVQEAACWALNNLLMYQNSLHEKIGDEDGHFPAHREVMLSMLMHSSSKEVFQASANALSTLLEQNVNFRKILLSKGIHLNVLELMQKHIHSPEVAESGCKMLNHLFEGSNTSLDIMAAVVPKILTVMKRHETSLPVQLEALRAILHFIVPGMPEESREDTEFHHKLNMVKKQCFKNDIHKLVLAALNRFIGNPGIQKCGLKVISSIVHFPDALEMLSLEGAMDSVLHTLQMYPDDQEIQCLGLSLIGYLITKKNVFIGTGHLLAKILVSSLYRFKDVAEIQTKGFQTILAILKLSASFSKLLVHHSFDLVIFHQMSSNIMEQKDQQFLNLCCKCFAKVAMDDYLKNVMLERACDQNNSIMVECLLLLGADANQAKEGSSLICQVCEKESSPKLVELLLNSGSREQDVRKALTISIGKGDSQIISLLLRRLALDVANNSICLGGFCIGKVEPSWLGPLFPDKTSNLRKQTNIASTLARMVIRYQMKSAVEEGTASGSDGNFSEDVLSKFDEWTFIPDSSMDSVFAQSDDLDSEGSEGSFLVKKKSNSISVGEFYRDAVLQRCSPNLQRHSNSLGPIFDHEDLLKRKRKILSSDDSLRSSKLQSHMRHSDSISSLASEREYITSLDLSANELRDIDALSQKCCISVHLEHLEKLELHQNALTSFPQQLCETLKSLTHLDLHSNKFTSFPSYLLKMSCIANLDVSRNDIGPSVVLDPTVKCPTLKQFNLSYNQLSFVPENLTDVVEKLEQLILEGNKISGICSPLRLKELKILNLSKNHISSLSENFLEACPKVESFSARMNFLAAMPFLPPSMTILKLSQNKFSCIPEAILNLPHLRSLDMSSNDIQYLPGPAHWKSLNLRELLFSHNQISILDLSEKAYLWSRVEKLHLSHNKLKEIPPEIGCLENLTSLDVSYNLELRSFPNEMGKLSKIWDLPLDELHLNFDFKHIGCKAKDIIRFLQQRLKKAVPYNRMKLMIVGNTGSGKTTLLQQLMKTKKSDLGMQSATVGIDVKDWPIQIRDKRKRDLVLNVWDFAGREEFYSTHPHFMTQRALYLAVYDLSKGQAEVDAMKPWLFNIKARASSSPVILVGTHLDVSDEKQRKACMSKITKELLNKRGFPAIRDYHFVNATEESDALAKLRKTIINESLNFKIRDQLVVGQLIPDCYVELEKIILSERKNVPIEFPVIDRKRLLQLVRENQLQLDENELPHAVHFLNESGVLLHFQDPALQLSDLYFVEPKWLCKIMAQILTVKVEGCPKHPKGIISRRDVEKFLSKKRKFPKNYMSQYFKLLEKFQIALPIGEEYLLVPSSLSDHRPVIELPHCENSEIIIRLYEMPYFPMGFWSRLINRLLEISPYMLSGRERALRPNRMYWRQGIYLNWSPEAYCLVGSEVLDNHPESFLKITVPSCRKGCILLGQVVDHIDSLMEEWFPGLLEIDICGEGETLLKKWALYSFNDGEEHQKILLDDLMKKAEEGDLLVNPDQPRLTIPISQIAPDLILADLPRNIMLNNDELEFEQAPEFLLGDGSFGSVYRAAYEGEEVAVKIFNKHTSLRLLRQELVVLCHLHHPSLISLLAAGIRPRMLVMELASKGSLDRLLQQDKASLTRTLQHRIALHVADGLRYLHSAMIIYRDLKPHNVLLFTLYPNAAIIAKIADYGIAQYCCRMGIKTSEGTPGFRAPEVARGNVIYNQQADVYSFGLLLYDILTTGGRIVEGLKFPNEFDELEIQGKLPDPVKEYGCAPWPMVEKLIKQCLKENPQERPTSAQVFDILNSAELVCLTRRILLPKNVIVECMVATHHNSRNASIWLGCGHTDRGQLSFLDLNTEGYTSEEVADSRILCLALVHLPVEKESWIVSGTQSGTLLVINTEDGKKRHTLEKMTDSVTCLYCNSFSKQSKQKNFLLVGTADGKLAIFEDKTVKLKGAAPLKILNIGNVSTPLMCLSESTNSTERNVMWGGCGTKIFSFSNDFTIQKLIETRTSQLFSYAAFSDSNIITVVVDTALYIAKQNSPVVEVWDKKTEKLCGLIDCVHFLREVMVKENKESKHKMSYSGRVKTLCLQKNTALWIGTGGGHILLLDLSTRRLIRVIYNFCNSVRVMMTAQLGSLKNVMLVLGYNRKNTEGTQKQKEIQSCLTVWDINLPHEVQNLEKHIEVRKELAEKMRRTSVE

B1: GST-AP2M1, recombinant (natural protein)
chain: MIGGLFIYNHKGEVLISRVYRDDIGRNAVDAFRVNVIHARQQVRSPVTNIARTSFFHVKRSNIWLAAVTKQNVNAAMVFEFLYKMCDVMAAYFGKISEENIKNNFVLIYELLDEILDFGYPQNSETGALKTFITQQGIKSQHQTKEEQSQITSQVTGQIGWRREGIKYRRNELFLDVLESVNLLMSPQGQVLSAHVSGRVVMKSYLSGMPECKFGMNDKIVIEKQGKGTADETSKSGKQSIAIDDCTFHQCVRLSKFDSERSISFIPPDGEFELMRYRTTKDIILPFRVIPLVREVGRTKLEVKVVIKSNFKPSLLAQKIEVRIPTPLNTSGVQVICMKGKAKYKASENAIVWKIKRMAGMKESQISAEIELLPTNDKKKWARPPISMNFEVPFAPSGLKVRYLKVFEPKLNYSDHDVIKWVRYIGRSGIYETRC
In the case of B1, the binding result was “binds”.

(Values after article doi:10.1101/2020.05.27.119388 (bioRxiv, 2020).)
